Here are results for 36 sequences from the supplement of paper PMC10567573.

± gives the standard deviation.

A short description of the series: protein stability index of a GFP-peptide fusion (GPS, HEK-293T) (PSI 1-6); higher = more stable. The note with it: c terminus: a fixed tail appended.
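Note: 24-mer peptide tiles fused after GFP, lentivirally expressed, FACS-sorted into six equal bins by GFP/DsRed ratio, decoded by Illumina sequencing, PSI is the read-weighted mean bin number.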

For LVSLTSRNPDQRKESLCISITVSK [FBXO34], the protein stability index (treatment: DMSO) is 2.26 ± 0.1 and the protein stability index (treatment: MLN4924 1 uM, 8 h) worked out at 2.47 ± 0.15.

Take LVTGLAIEEACYAQTIPTKDRLEG [AUH]: the protein stability index by setting is: (treatment: DMSO) 3.02 ± 0.34; (treatment: MLN4924 1 uM, 8 h) 3.13 ± 0.27.

The sequence LVTTGANVNETDDWGRTALHYAAA [ANKRD44] showed a protein stability index (treatment: DMSO) of 3.34 ± 0.26 and a protein stability index (treatment: MLN4924 1 uM, 8 h) of 3.52 ± 0.15.

LVVMAPSPSESSETVLALVNCISP [DENND6A]: the protein stability index by setting is: (treatment: DMSO) 2.4 ± 0.32; (treatment: MLN4924 1 uM, 8 h) 2.15 ± 0.19.

Consider LWWIAPGDETAHRIDSQFLIGDTL [MYORG], for which the protein stability index was found to be 1.95 ± 0.23 (treatment: DMSO) and 2.06 ± 0.43 (treatment: MLN4924 1 uM, 8 h).

Take MACHRCLVYLGDLSRYQNELAGVD [SMG5]: the protein stability index runs as follows: (treatment: DMSO) 2.64 ± 0.7; (treatment: MLN4924 1 uM, 8 h) 2.54 ± 0.55.

Consider MAVLEEIQQELIKQEQSIISEYEK [RPAIN], for which the protein stability index by setting is: (treatment: DMSO) 4.28 ± 0.16; (treatment: MLN4924 1 uM, 8 h) 4.47 ± 0.16.

For the sequence MCMVMRGVQKMNSKTVTSTMLGVF [GCH1], the protein stability index runs as follows: (treatment: DMSO) 2.31 ± 0.43; (treatment: MLN4924 1 uM, 8 h) 2.56 ± 0.44.

As for MDGRWQCSCWAWFLLVLAVVAGDT [ADAMTSL2], the protein stability index runs as follows: (treatment: DMSO) 2.62 ± 1; (treatment: MLN4924 1 uM, 8 h) 2.45 ± 0.52.

With MEDSPLPDLRDIELKLGRKVPESL [LURAP1L], the protein stability index (treatment: DMSO) was 4.68 ± 0.2 and the protein stability index (treatment: MLN4924 1 uM, 8 h) came out at 4.63 ± 0.23.

Consider MEHQLLCCEVETIRRAYPDANLLN [CCND1], for which the protein stability index is, setting by setting: (treatment: DMSO) 2.86 ± 0.24; (treatment: MLN4924 1 uM, 8 h) 2.87 ± 0.28.

In the case of MELLCHEVDPVRRAVRDRNLLRDD [CCND2], the protein stability index by setting is: (treatment: DMSO) 4.28 ± 0.34; (treatment: MLN4924 1 uM, 8 h) 4.5 ± 0.12.

For MENLPGLASGPGKYMPHLCQDSSG, the protein stability index was determined as 4.05 ± 0.067 (treatment: DMSO) and 3.93 ± 0.12 (treatment: MLN4924 1 uM, 8 h).

The sequence METSAPRAGSQVVATTARHSAAYR [FUNDC2] came in with a protein stability index (treatment: DMSO) of 4.5 ± 0.19 and a protein stability index (treatment: MLN4924 1 uM, 8 h) of 4.2 ± 0.11.

With MEYCLEVIKENDPSGFLQISDALI [TRIM9], the protein stability index amounted to 2.47 ± 0.29 (treatment: DMSO) and 2.69 ± 0.28 (treatment: MLN4924 1 uM, 8 h).

On to MFLQLVPSWNGSLKQLLTETDVWF [GMCL1], for which the protein stability index is 3.13 ± 0.68 (treatment: DMSO) and 2.56 ± 1.3 (treatment: MLN4924 1 uM, 8 h).

In turn, MGNSMKSTPAPAERPLPNPEGLDS [SLA] yielded a protein stability index (treatment: DMSO) of 5.07 ± 0.49 and a protein stability index (treatment: MLN4924 1 uM, 8 h) of 5.13 ± 0.59.

Regarding MGQVLPVFAHCKEAPSTASSTPDS [RTN2], the protein stability index was 4.67 ± 0.25 (treatment: DMSO) and 4.83 ± 0.23 (treatment: MLN4924 1 uM, 8 h).

Take MGWEGPNSRVDDTFWASWRAFAQI [MIR22HG]: the protein stability index came out at 2.45 ± 0.28 (treatment: DMSO) and 2.21 ± 0.17 (treatment: MLN4924 1 uM, 8 h).

Take MHYCAVPPRGPLGQGAMFRLPTDS [NEUROD6]: the protein stability index amounted to 2.97 ± 0.29 (treatment: DMSO) and 3.17 ± 0.38 (treatment: MLN4924 1 uM, 8 h).

In the case of MLQSFINYCLLFLIYTVMLAFRSG [SLC35F2], the protein stability index runs as follows: (treatment: DMSO) 2.83 ± 0.4; (treatment: MLN4924 1 uM, 8 h) 3.42 ± 0.28.

MMMMGPKEEEQSCEYETRLPGNHS [ZNF232]: the protein stability index came to 4.51 ± 0.48 (treatment: DMSO) and 4.64 ± 0.4 (treatment: MLN4924 1 uM, 8 h).

For MNKGDTEVMKCIVEVISDTLSKPS [CHGA], the protein stability index (treatment: DMSO) turned out to be 2.84 ± 0.3 and the protein stability index (treatment: MLN4924 1 uM, 8 h) worked out at 2.86 ± 0.31.

As for MPPGLHHQRKYTQSFCGENIMMPM [ZNF207], the protein stability index by setting is: (treatment: DMSO) 2.29 ± 0.6; (treatment: MLN4924 1 uM, 8 h) 2.27 ± 0.34.

Consider MPPQPGIPQQQGMRPPMPPHGQYG [ZNF207], for which the protein stability index by setting is: (treatment: DMSO) 4.31 ± 0.2; (treatment: MLN4924 1 uM, 8 h) 4.43 ± 0.11.

MQRLVAWDPACLPLPPPPPAFKSM [CEBPB]: the protein stability index is, setting by setting: (treatment: DMSO) 2.63 ± 0.39; (treatment: MLN4924 1 uM, 8 h) 2.91 ± 0.39.

Regarding MQVIAIVLYLMMPIVNISEVLGPL [PHTF1], the protein stability index stood at 3.08 ± 0.29 (treatment: DMSO) and 3.34 ± 0.38 (treatment: MLN4924 1 uM, 8 h).

MRHIRFLKNEVERLKKQLRAAQLQ [CCDC6]: the protein stability index reads like this: (treatment: DMSO) 2.31 ± 0.25; (treatment: MLN4924 1 uM, 8 h) 2.23 ± 0.25.

Sequence MRLSSSPPRGPQQLSSFGSVDWLS [VENTX] gave a protein stability index (treatment: DMSO) of 2.99 ± 0.059 and a protein stability index (treatment: MLN4924 1 uM, 8 h) of 3.15 ± 0.3.

Take MRMSDTVTVKDETATMKDLEAEVK [R3HDM1]: the protein stability index (treatment: DMSO) was determined as 5.46 ± 0.072 and the protein stability index (treatment: MLN4924 1 uM, 8 h) came to 5.37 ± 0.092.

Consider MRYLRNHCLDQVGLFRKSGVKSRI [DLC1], for which the protein stability index (treatment: DMSO) is 2.64 ± 0.36 and the protein stability index (treatment: MLN4924 1 uM, 8 h) was found to be 2.64 ± 0.37.

Take MSAKLGKSSSLLTQTSEECNGILT [ZNF396]: the protein stability index came out at 3.99 ± 0.16 (treatment: DMSO) and 4.2 ± 0.22 (treatment: MLN4924 1 uM, 8 h).

Consider MSNQQEKYEAQNIVNSTEESDDAF [IQUB], for which the protein stability index runs as follows: (treatment: DMSO) 5.65 ± 0.18; (treatment: MLN4924 1 uM, 8 h) 5.47 ± 0.29.

Take MSQTGSHPGRGLAGRWLWGAQPCL [ADAMTS4]: the protein stability index is 3 ± 0.38 (treatment: DMSO) and 2.28 ± 0.87 (treatment: MLN4924 1 uM, 8 h).

Consider MTELRQRVAHEPVAPPEDKESESE [CDS2], for which the protein stability index by setting is: (treatment: DMSO) 5.39 ± 0.26; (treatment: MLN4924 1 uM, 8 h) 5.44 ± 0.23.

MTGTPKTQEGAKDLEVDMNKTEVT [ACSBG2]: the protein stability index came to 5.64 ± 0.35 (treatment: DMSO) and 5.68 ± 0.27 (treatment: MLN4924 1 uM, 8 h).
